T1: Native Nav1.7 (3-1) peptide, human (human)
T1 construct: Synthetic peptide (Celtek), unbiotinylated; also called Human Nav1.7 3-1 native; Nav1.7 3-1 native peptide
T1 peptide: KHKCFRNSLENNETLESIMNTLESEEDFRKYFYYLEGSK

T2: N-Term Biotin Nav1.7 (3-1) peptide, mulatta (mulatta (monkey), not fully specified; N-terminal biotin attached via a G4S linker)
T2 construct: Synthetic peptide; also called Mulatta Nav1.7 3-1 N-term biotin; monkey
T2 peptide: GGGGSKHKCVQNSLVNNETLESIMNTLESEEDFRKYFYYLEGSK

T3: N-Term Biotin Nav1.7 (3-1) peptide, mouse (mouse, not fully specified; N-terminal biotin attached via a G4S linker)
T3 construct: Synthetic peptide; also called Mouse Nav1.7 3-1 N-term biotin
T3 peptide: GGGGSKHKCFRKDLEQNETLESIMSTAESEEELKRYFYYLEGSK

T4: Native Nav1.7 (3-1) peptide, rat (rat)
T4 construct: Synthetic peptide; also called Rat Nav1.7 3-1 native
T4 peptide: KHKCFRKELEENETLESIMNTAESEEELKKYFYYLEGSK

T5: C-term Biotin Nav1.7 (3-1) peptide, human (human, not fully specified; C-terminal biotin attached via a G4S linker)
T5 construct: Synthetic peptide; also called Human Nav1.7 3-1 C-term biotin
T5 peptide: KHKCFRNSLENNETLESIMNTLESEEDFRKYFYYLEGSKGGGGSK

T6: N-Term Biotin-Nav1.7 (3-1) peptide, human (human, not fully specified; N-terminal biotin attached via a G4S linker)
T6 construct: ELISA peptide
T6 peptide: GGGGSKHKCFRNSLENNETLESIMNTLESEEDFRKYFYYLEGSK


What was measured:
[1] = target: T7, full-length human Nav1.7 fused at its N-terminus to GFP, expressed in HEK293 cells (human, UniProt Q15858 1-1988); experiment: cell-based or functional assay
[2] = target: T1, Native Nav1.7 (3-1) peptide, human; experiment: SPR, captured antibody, peptide analyte
Procedure: (§1) The binding affinities of anti-Naᵥ 1.7 antibodies to Naᵥ 1.7 loop peptides were determined by Biacore. For monovalent kinetic experiments, antibodies were captured through the Fc region via a goat anti-Fc-coupled biosensor surface, and the peptides (as analyte) were injected over this captured antibody surface. For bivalent (avidity-driven) kinetic experiments, biotinylated peptides corresponding to the Naᵥ 1.7 3-1, 3-3, or paddle loop sequences were captured on a NeutrAvidin sensor surface, and anti-Naᵥ 1.7 antibodies (as analyte) were injected over this surface. Following the capture step, each analyte was individually injected at several concentrations over its respective capture surface, and changes in bound surface units (RU) were monitored. The dissociation rate is independent of the concentration of analyte used in the experiment, and the dissociation rate constant (kd) was determined from the change in antibody-bound analyte RU over time. The Biacore kinetic data were obtained using a double referencing procedure. The double referencing was conducted by first subtracting any interaction of the analyte over the reference surface (i.e., the anti-Fc coupled surface alone or the NeutrAvidin surface alone), thereby correcting for nonspecific binding to capture surface and for refractive index changes. Control buffer injections (no analyte) over the antibody- or peptide-captured surfaces were also performed to allow subtraction of RU signal changes resulting from the natural dissociation of captured binding partner from the sensor surface. The kinetic parameters were obtained by globally fitting the data for all concentrations tested for a given peptide or antibody to a 1:1 binding model using Biacore T100 Evaluation Software version 2.0.2. The KD was calculated as the dissociation rate constant divided by the association rate constant (KD=kd/kₐ). The dissociative half-life (t_{1/2}) was calculated from the dissociation rate constant (t_{1/2}=In2/kd).

[3] = target: T2, N-Term Biotin Nav1.7 (3-1) peptide, …; experiment: SPR, captured antibody, peptide analyte
Procedure: as §1

[4] = target: T3, N-Term Biotin Nav1.7 (3-1) peptide, …; experiment: SPR, captured antibody, peptide analyte
Procedure: as §1

[5] = target: T4, Native Nav1.7 (3-1) peptide, rat; experiment: SPR, captured antibody, peptide analyte
Procedure: as §1

[6] = target: T5, C-term Biotin Nav1.7 (3-1) peptide, …; experiment: SPR, captured biotin-peptide, antibody analyte
Procedure: as §1

[7] = target: T2, N-Term Biotin Nav1.7 (3-1) peptide, …; experiment: ELISA on coated peptide, antibody 1 ug/ml, OD450 grade
Procedure: (§2) Anti-Naᵥ 1.7 antibodies were tested for their ability to bind to the Naᵥ 1.7 peptides. The various peptides were coated overnight onto 96-well Nunc Immunosorp plates at a concentration of 4 μg/mL in PBS, followed by blocking for 1 hour in a suitable blocking agent. For biotinylated peptides, avidin was first coated on Nunc Immunosorp plates at 2 μg/mL in PBS overnight, followed by blocking as described, and the plate was then coated with biotinylated peptides at a concentration of 0.4 μg/mL and incubated for 1 hour at room temperature. Purified anti-Naᵥ 1.7 antibodies were diluted to a final concentration of 0.1 μg/mL and 1.0 μg/mL and added to the wells of the coated microtiter plates followed by incubation for 1 hour at room temperature. Bound antibodies were detected with horseradish peroxidase (HRP) conjugated anti-mouse or anti-human IgG (Jackson Immuno Research Lab, West Grove, Pa.) depending on the antibody species and developed by colorimetric response using tetramethylbenzidine (TMB) substrate (BD Biosciences). Absorbance was read at OD₄₅₀ on a plate reader for 0.1 second.
(§3) Values in Table 11 represent absolute binding ranges (at OD450) to plate-coated peptides for antibodies added at 1 μg/ml as follows: OD450<0.2: −; 0.2<OD450<1: +; 1<OD450<2: ++; 2<OD450<4: +++; NT: Not Tested.

[8] = target: T3, N-Term Biotin Nav1.7 (3-1) peptide, …; experiment: as above
Procedure: as §2, §3

[9] = target: T4, Native Nav1.7 (3-1) peptide, rat; experiment: as above
Procedure: as §2, §3

[10] = target: T6, N-Term Biotin-Nav1.7 (3-1) peptide, …; experiment: as above
Procedure: as §2, §3

[11] = target: T7, full-length human Nav1.7 fused at its …; experiment: flow cytometry; % stained hNav1.7-GFP-HEK293 minus parental HEK293
Procedure: The binding of anti-Naᵥ 1.7 human antibodies to full-length Naᵥ 1.7 expressed in HEK293 cells was determined by flow cytometry (FACS). HEK293 cells were stably-transfected with full-length human Nav1.7 fused at its N-terminus to the green fluorescent protein (GFP) to generate cell line hNaᵥ 1.7-GFP-HEK293. Antibody binding to the transfected cells overexpressing Naᵥ 1.7 was compared to binding to the parental HEK293 cell line. To perform the binding experiments, adherent cells were collected using 1 mM EDTA in PBS, washed and re-suspended in cold PBS containing 5% FBS. For each binding experiment, the anti-Naᵥ 1.7 antibody (at concentrations ranging from 1 nM to 13 nM), was added to 250,000 cells in 500 μL of PBS with 5% FBS. After incubation for 20 minutes on ice, the secondary antibody, recognizing either human-Fc and conjugated to cyanine 5 (Cy5) or recognizing mouse-Fc and conjugated to allophyocyanin (APC), was then added to the cell mixture at a final secondary antibody concentration of 1.7 nM. After incubating for 20 minutes on ice, the cells were resuspended in PBS+5% FBS and then sorted and analyzed on a flow cytometer to determine relative binding by the candidate antibodies. For FACS analysis, gating was applied to examine only healthy live cells in the antibody binding experiments, and percentage stained was recorded. Staining of secondary antibodies alone to Naᵥ 1.7-GFP-HEK293 cells gave low background signals (1-2%). Specific binding was measured as the percent binding to Naᵥ 1.7-GFP-HEK293 cells minus percent binding to parental HEK293 cells.

[12] = target: T7, full-length human Nav1.7 fused at its …; experiment: flow cytometry on Nav1.7-GFP-HEK293, antibody 3.3 nM
Procedure: (§4) The specificity of binding of anti-Naᵥ 1.7 human antibodies to full-length Naᵥ 1.7 expressed in HEK293 cells was determined by peptide competition experiments using flow cytometry.
(§5) HEK293 cells stably-transfected with full-length Naᵥ 1.7 fused at its N-terminus to GFP (Naᵥ 1.7-GFP-HEK293) were used for this study. Antibody binding to the transfected cells overexpressing Naᵥ 1.7 was compared to binding in the presence of excess peptide and to binding to the parental HEK293 cell line. To perform the binding experiments, adherent cells were collected using 1 mM EDTA in PBS, washed and re-suspended in cold PBS containing 5% FBS. For each binding experiment the anti-Naᵥ 1.7 antibody at a final concentration of 3.3 nM (in PBS/5% FBS) was added to cells either directly or after incubating for 10 min on ice with a 1000-fold molar excess (3.3 uM final concentration in PBS/5% FBS) of synthetic peptide with sequence corresponding to the loop specificity of the antibody. The antibodies designated as H4H391P, H4H443B, H4H448B, and H1M797N were preincubated as described above with a synthetic peptide corresponding to EC loop 3-1 (amino acid residues 269-338 of SEQ ID NO: 670), whereas the antibodies designated as H4H468P and H1 M852N were preincubated with a synthetic peptide corresponding to EC loop 3-3 (amino acid residues 1333-1382 of SEQ ID NO: 670). The antibody or antibody-peptide mixture was then allowed to incubate with cells for 20 min on ice, followed by addition of 500 uL of cold PBS/5% FBS. Cells were collected by centrifugation, resuspended in 500 uL of cold PBS/5% FBS, and then secondary antibody matched to the antibody isotype (either anti-human-Fc conjugated to Cyanine 5 or anti-mouse-Fc conjugated to allophyococyanin) was added. Binding was detected on the flow cytometry instrument and analyzed as percent binding using the instrument software. For FACS analysis appropriate gating was applied so that only healthy, live cells were counted. Background staining of secondary antibodies alone to Naᵥ 1.7-GFP-HEK293 cells was tested and recorded for all samples, and results ranged between 1-2% binding.

[13] = target: T7, full-length human Nav1.7 fused at its …; experiment: flow cytometry on Nav1.7-GFP-HEK293, antibody 3.3 nM preincubated with 3.3 uM EC 3-1 peptide as competitor
Procedure: as §4, §5

[14] = target: T3, N-Term Biotin Nav1.7 (3-1) peptide, …; experiment: ELISA on coated peptide
Procedure: as §2, §3

Row | Kd [2] | t1/2 [2] | Kd [3] | t1/2 [3] | Kd [6] | t1/2 [6] | % Binding Nav1.7 [11] | binding result [4] | % Binding Nav1.7 (Stable Line) [12] | % Binding Nav1.7 + 1000x Peptide (Competition Binding) [13] | Binder | other results
1 | 113 nM | 0.44 min | 12.6 nM | 2.8 min | 0.231 nM | 29.8 min | 28.1% | – | – | – | H1H1019B (antibody, V domains shown) VH: EVQLVESGPGLVKPSETLSLKCTVSGGSIRSSGYYWGWIRQPPGKGLEWIGSIHHSGSTYYNPSLKSRVTISVDTSKSQFSLRLTSVTAADTAVYYCGRHGRDYYYGMDVWGQGTTVTVSS VL: AIQLTQSPSSLSASVGDRVTITCRASQDINNWLVWYQQKPGKAPKLLIYAASSLQSGVPSRFSGSGSGTDFTLTISSLQPEDFATYYCQQANSFPLTFGGGTKVDIKR | Current blocking (Average % inhibition), IonWorks Quattro, 223 nM antibody [1]: 24%; Kd [4]: 351 nM; t1/2 [4]: 0.083 min; Kd [5]: 101 nM; t1/2 [5]: 0.11 min; OD450 [7]: 2 to 4 od; OD450 [8]: 2 to 4 od; OD450 [9]: 2 to 4 od; OD450 [10]: 2 to 4 od
2 | 13.6 nM | 8.1 min | 2.18 nM | 36.1 min | 0.802 nM | 64.6 min | 14.3% | no binding | 7.8% | 2.6% | H4H391P (antibody, V domains shown) VH: QVQLVESGGGVVQPGRSLRLSCAASGFTFSSYGMHWVRQAPGKGLEWVAVISYEGSNKHYADSVKGRFTISRDNSKNTLYLQMNSLRAEDTAVFYCAQSRGYSYGLGYWGQGTLVTVSS VL: not shown | binding result [5]: no binding
3 | – | – | – | – | – | – | – | no binding | – | – | H4H408B (antibody, V domains shown) VH: QVQLVESGGGVVQPGRSLRLSCAASGFTFSSYGMHWVRQAPGKGLEWVAVISYQESNKHYVDSVKGRFTISRDNSKNTLYLQMNSLRAEDTAVYYCAQSRGYSYGLGYWGQGTLVTVSS VL: DIQMTQSPSSLSASVGDRVTITCRASQGIRNDLGWYQQKPGKAPKRLIYAASSLQSGVPSRFSGSGSGTEFTLTISSLQPEDFATYYCQQHNSYPLTFGQGTKVEIKR | OD450 [14]: < 0.2 od
4 | – | – | – | – | – | – | 36% | – | 93% | 33.4% | H1M994N (antibody, V domains shown, Hybridoma-derived) VH: QVQLVESGGGVVQPGRSLRLSCAASGFTFSSYGMHWVRQAPGKGLEWVAVISYDGNNKHFADSVKGRFTISRDNSKNTLNLQMNSLRAEDRAVYYCARGASGFVLDIWGQGTMVTVSS VL: DIVMTQTPLSSPVTLGQPASISCRSSQSLVRSDGNTYLSWLQQRPGQPPRLLIYKISNRFSGVPDRFSGSGAGTDFTLKISRVEAEDVGIYFCMQTTQFPFTFGPGTKVDIK | –
5 | – | – | – | – | – | – | 61% | – | 95.6% | 17.7% | H1M826N (antibody, V domains shown, Hybridoma-derived) VH: QVQLVESGGGVVQPERSLRLSCAASGFTFSSYGMHWVRQAPGEGLEWVAVISYDGSNTKYADSVRGRFTISRDNSKNMLYLQMNSLRAEDTAVFYCARGYSGYAFDYWGQGILVTVSS VL: DIVMTQTPLSSPVTLGQPASISCRSSHSLVRSDGNTYLSWLQQRPGQPPRLLIYKISNRFSGVPDRFSGTGAGTDFTLKINRVEAEDVGFYYCMQATQFPFTFGPGTKVDIK | –

Reference: US20160024208A1 (Regeneron, published 2016)
